Results on eight molecules are retold here after patent publication US20180230218A1 (IMMUNOGEN, published 2018).

The chains are these.
B1: hucMet22Gv2.2 (antibody, V domains shown)
VH: QVQLVQSGAEVKKPGASVKVSCKASGYTFTDYNMDWVRQAPGQRLEWIGDLNPNNGATIYNQKFKGRATLTVDMSASTAYMELSSLRSEDTAVYYCARGNYYGNYYYLMDYWGQGTSVTVSS
VL: DIQMTQSPSSLSASVGDRVTITCRASENIYSTLAWYQQKPGKAPKLLVYAATNLADGVPSRFSGSGSGTDYTLTISSLQPEDFATYYCQHFWGTPYTFGQGTKVEIKR
notes: also called humanized (CDR-grafted) cMET-22
B2: hucMet27Gv1.3 (antibody, human IgG1, kappa)
light: EIVLTQSPATLSLSPGERATLSCRASESVDSYGNSFIHWYQQKPGQAPRLLIYRASNLESGIPARFSGSGSGTDFTLTISSLEPEDFAVYYCQQSNEEPLTFGQGTKVELKRTVAAPSVFIFPPSDEQLKSGTASVVCLLNNFYPREAKVQWKVDNALQSGNSQESVTEQDSKDSTYSLSSTLTLSKADYEKHKVYACEVTHQGLSSPVTKSFNRGEC
heavy: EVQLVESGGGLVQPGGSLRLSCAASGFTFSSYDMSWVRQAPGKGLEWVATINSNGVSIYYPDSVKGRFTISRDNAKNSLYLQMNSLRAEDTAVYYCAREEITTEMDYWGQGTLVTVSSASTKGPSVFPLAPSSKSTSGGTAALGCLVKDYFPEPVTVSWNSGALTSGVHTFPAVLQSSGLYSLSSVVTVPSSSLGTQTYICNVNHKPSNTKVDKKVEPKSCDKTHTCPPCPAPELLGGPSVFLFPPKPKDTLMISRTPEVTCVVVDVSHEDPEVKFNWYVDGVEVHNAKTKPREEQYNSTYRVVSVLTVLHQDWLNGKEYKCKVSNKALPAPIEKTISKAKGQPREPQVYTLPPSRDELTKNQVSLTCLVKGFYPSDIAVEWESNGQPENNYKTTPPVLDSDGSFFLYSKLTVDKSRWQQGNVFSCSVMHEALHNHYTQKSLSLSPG
notes: CDR-grafted cMET-27 with one S49A backmutation in VH; preferred construct
B3: hucMet27Gv1.3Hinge28 (antibody)
light: B2 light
heavy: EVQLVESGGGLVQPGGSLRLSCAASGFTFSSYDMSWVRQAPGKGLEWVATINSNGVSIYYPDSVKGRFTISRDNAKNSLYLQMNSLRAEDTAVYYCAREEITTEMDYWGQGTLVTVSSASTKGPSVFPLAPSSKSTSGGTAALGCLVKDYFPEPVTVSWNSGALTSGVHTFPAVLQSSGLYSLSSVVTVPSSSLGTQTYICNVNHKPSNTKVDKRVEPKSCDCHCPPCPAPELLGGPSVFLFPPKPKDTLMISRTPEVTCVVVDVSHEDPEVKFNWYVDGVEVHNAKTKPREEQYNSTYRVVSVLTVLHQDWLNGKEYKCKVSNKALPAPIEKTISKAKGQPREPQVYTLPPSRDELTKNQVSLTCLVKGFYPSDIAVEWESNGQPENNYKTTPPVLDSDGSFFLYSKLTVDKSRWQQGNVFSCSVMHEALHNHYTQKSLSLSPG
notes: Hinge#28 variant of hucMet27Gv1.3
B4: hucMet27Gv1.3Hinge26C442 (antibody)
light: B2 light
heavy: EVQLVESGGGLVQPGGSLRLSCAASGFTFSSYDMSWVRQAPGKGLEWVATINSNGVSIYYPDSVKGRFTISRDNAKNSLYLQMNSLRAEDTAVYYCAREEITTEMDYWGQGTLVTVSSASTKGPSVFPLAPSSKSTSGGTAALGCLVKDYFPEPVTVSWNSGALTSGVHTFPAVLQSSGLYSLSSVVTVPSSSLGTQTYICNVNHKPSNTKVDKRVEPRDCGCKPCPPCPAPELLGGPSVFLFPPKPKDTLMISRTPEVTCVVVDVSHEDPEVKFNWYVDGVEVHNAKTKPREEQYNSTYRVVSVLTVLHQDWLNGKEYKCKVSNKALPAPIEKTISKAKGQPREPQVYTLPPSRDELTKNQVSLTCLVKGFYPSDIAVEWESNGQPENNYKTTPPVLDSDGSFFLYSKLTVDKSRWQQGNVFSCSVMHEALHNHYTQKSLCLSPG
notes: Hinge#26 and C442 (Cysmab) variant of hucMet27Gv1.3
B5: hucMet27Gv1.3HingeIgG2S127C (antibody)
light: B2 light
heavy: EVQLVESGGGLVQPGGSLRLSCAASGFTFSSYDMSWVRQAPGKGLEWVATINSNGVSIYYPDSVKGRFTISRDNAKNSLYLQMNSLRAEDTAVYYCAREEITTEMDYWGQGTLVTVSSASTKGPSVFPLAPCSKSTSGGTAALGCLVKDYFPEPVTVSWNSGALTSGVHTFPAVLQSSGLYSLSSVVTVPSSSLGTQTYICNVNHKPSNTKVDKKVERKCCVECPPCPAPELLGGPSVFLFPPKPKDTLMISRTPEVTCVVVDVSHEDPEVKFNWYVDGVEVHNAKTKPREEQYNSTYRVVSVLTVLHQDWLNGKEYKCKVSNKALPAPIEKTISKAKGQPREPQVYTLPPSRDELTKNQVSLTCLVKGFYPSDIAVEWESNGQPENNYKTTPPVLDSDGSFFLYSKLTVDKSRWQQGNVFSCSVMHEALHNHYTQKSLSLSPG
B6: hucMet27Gv1.3C442 (antibody)
light: B2 light
heavy: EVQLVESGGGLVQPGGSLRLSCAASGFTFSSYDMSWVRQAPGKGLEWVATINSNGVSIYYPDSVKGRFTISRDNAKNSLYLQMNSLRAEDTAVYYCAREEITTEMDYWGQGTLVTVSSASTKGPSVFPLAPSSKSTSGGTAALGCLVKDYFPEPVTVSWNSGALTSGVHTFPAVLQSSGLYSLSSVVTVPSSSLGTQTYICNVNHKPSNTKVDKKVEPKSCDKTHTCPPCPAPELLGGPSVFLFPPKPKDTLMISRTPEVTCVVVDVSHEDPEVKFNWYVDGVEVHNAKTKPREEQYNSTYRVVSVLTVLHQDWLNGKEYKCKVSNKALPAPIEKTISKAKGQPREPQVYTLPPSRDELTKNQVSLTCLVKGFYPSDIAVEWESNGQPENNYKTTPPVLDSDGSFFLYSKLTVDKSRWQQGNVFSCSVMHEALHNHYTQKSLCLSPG
notes: Cysteine-engineered (C442, Cysmab) form of hucMet27Gv1.3, tested unconjugated
B7: hucMet27Gv1.2 (antibody, human IgG1, kappa, V domains shown)
VH: EVQLVESGGGLVQPGGSLRLSCAASGFTFSSYDMSWVRQAPGKGLELVATINSNGVSIYYPDSVKGRFTISRDIAKNSLYLQMNSLRAEDTAVYYCAREEITTEMDYWGQGTLVTVSS
VL: EIVLTQSPATLSLSPGERATLSCRASESVDSYGNSFIHWYQQKPGQAPRLLIYRASNLESGIPARFSGSGSGTDFTLTISSLEPEDFAVYYCQQSNEEPLTFGQGTKVELKR
notes: CDR-grafted cMET-27 with backmutations only in the VH domain (W47L, S49A, N73I); also called v1.2 (CDR-grafted)
B8: hucMet27v1.2 (antibody, human IgG1, kappa, V domains shown)
VH: B7 VH with A40T, S78T, N84S, V93M, L113S
VL: DIVLTQSPASLAVSPGQRATISCRASESVDSYGNSFIHWYQQKPGQPPKLLIYRASNLESGIPARFSGSGSRTDFTLTINPVEANDVATYYCQQSNEEPLTFGGGTKLELKR
notes: also called hu247.27.16 v1.2 (resurfaced); hu247.27.16 LC1.2 / HC1.0

Where a chain is given by its changes, count along the chain named. In names and notes the source's numbering stands.

T1 sequence (P08581 25-932): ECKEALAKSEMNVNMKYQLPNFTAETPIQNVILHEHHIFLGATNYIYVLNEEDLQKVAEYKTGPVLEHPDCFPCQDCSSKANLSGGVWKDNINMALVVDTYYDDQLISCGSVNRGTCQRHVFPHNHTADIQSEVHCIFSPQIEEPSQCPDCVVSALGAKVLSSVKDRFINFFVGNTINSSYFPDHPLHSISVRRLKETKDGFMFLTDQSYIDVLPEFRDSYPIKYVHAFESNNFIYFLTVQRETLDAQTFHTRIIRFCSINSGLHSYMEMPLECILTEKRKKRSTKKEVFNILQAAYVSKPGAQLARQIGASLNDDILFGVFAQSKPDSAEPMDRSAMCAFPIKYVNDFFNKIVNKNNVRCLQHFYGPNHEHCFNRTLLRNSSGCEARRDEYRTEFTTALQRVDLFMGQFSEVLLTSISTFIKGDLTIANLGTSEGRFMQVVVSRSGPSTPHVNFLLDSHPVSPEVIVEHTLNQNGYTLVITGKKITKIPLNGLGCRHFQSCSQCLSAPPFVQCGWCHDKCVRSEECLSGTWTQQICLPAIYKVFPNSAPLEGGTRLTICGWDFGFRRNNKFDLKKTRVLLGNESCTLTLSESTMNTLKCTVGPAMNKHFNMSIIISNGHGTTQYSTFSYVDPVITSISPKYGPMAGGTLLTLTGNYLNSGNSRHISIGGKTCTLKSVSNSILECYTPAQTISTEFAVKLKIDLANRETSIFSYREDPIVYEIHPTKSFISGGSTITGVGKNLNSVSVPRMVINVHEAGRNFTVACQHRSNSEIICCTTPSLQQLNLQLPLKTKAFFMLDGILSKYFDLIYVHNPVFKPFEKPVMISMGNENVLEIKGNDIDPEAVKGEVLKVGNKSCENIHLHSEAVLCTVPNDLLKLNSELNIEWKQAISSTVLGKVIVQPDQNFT

One assay concerns the target T1, Human cMet-ECD-his (human, UniProt P08581 25-932).
T1 construct: extracellular domain; Soluble analyte in the ForteBio assay; also called hu cMet; soluble recombinant hu cMet protein; not shown: histidine-containing peptide (His tag)
In words: BLI (ForteBio), antibody on anti-hIgG Fc capture biosensor, soluble cMet-ECD-his 2.6-30 nM, 1:1 fit.
As for B1, binding was put at a Kd of 4.77 nM, the koff was 0.00213 s⁻¹ and the kon came out at 445000 M⁻¹ s⁻¹.
On the same counts, the results for B2 are 1.81 nM, 0.000478 s⁻¹ and 264000 M⁻¹ s⁻¹.
On the same counts, the results for B3 are 1.96 nM, 0.000451 s⁻¹ and 230000 M⁻¹ s⁻¹.
On the same counts, the results for B4 are 1.9 nM, 0.000497 s⁻¹ and 262000 M⁻¹ s⁻¹.
Molecule B5 displayed a Kd of 1.67 nM, a koff of 0.000436 s⁻¹ and a kon of 235000 M⁻¹ s⁻¹.
In turn, B6 registered a Kd of 1.64 nM, an off-rate constant (koff) of 0.000447 s⁻¹ and a kon of 272000 M⁻¹ s⁻¹.
For B7, in that order: 0.941 nM, 0.000154 s⁻¹ and 266000 M⁻¹ s⁻¹.
For B8, in that order: 0.989 nM, 0.000233 s⁻¹ and 236000 M⁻¹ s⁻¹.

The target in another assay is T2, Cyno cMet-ECD-his (cynomolgus monkey).
T2 construct: extracellular domain; Soluble analyte in the ForteBio assay; also called cynomolgus monkey cMet
Described as above.
Method: Briefly, each antibody was bound and immobilized onto an anti-hIgG Fc Capture biosensor and then incubated in the presence of different concentrations (2.6-30 nM) of His-tagged soluble cMet. The kinetics of binding were determined via ForteBio analysis binding using a 1:1 binding fit model.
For B1, the dissociation constant (Kd) came to 3.62 nM, the koff came out at 0.00128 s⁻¹ and the kon turned out to be 353000 M⁻¹ s⁻¹.
On the same counts, the results for B2 are 1.94 nM, 0.000415 s⁻¹ and 214000 M⁻¹ s⁻¹.
B3 showed a Kd of 1.68 nM, a koff of 0.000564 s⁻¹ and a kon of 336000 M⁻¹ s⁻¹.
On the same counts, the results for B4 are 1.57 nM, 0.000496 s⁻¹ and 317000 M⁻¹ s⁻¹.
For B5, in that order: 1.47 nM, 0.00045 s⁻¹ and 307000 M⁻¹ s⁻¹.
On the same counts, the results for B6 are 1.6 nM, 0.000439 s⁻¹ and 273000 M⁻¹ s⁻¹.
Molecule B7 displayed a Kd of 0.614 nM, a koff of 0.000148 s⁻¹ and a kon of 241000 M⁻¹ s⁻¹.
On the same counts, the results for B8 are 0.928 nM, 0.000196 s⁻¹ and 212000 M⁻¹ s⁻¹.
